# Values of other authors as cited in publication PMC4070439.
# pKd: −log10 of the molar value.
# Tests used:
# [1] = biological target: IL-12Rβ1 (low affinity site) (Mus musculus) (UniProt Q60837)
# [2] = biological target: IL-12Rβ1 (high affinity site) (Mus musculus) (UniProt Q60837)
substance,measurement,setting,value
IL-12 p40 homodimer (from UniProt P43432),pKd,[1],7.82
same,pKd,[2],11.30
